This passage reports Ki results from article PMC5929103.

By pKi is commonly meant −log10 of the Ki, conventionally taken in molar units. High values mean a low Ki, low ones a high Ki.

What all share (test): enzyme inhibition kinetics
Assay [1] addresses human cationic trypsin, active (human).
Assay [2] concerns the target human anionic trypsin, active (human) (UniProt P07478).
The target of assay [3] is human mesotrypsin, active (human) (UniProt P35030).

pKi: −log10 of the molar value.

UniProt P35030, sequence (P35030 81-304): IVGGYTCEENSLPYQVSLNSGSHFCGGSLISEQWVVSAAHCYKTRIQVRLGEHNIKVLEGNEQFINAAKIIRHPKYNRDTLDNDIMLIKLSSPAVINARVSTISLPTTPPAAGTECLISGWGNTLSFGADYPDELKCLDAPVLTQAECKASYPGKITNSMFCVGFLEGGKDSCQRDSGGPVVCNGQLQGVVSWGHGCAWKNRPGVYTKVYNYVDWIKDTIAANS
UniProt P07478, sequence (P07478 24-247): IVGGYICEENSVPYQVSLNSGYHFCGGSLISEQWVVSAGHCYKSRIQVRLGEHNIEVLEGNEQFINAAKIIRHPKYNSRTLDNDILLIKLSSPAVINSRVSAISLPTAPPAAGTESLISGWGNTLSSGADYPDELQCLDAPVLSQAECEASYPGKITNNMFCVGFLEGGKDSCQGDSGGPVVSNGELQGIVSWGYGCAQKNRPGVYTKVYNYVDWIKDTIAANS

For “APPI_(M17G/I18F/F34V), soluble form (designed binder)”, the pKi in assay [1] was 10.64.
The same measure, in the same setting: to “wild-type amyloid β-protein precursor Kunitz protease inhibitor domain (APPI) (from UniProt P05067 289-344) (domain or fragment)” belongs 11.39.
For “APPI_(P13W/M17G/I18F/F34V), soluble form (designed binder)”, the pKi in assay [2] is 11.42; in assay [1] it was 10.72; in assay [3] it was 10.16.
